# Results: the nanobody polyreactivity screen of Harvey et al. (2022)
# Experiment: yeast display, Sf9 membrane polyspecificity reagent, FACS + sequencing; frameworks hold sequencing errors
# Outline: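 Nanobodies from a synthetic yeast display library (Saccharomyces cerevisiae BJ5465), induced 36–48 hours with galactose, were stained 1 hour at 4 °C with 10% biotinylated, detergent-solubilized Sf9 membrane reagent, enriched on streptavidin microbeads, then FACS-sorted. Anti-HA (expression) and streptavidin (reagent binding) fluorescence set low and high (top ~1%) gates. Polyreactivity labels come from the gate of origin. Genes were colony-PCR amplified, MiSeq 2 × 250 sequenced and filtered by CDR length.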
row,Sequence,polyreactivity (PSR sort gate)
1,QVQLVESGGGLVQAGGSLRLSCAASGRIFILYGMGWYRQAPGKERELVAAIRWSGASTYYADSVKGRFTISRDNAKNTVYLQMNSLKPEDTAVYYCAATVGFTPSFWYSSKYDYWGQGTQVTVSS,low polyreactivity
2,QVQLVESGGGLVQAGGSLRLSCAASGRIFINNAMGWYRQAPGKERELVAAISSRGGSTYYADSVKGRFTISRDNAKKTVYLQMNSLKPEDTAVYYCAVDVYEPRYRRPFHHDYWGQGTQVTVSS,low polyreactivity
3,QVQLVESGGGLVQAGGSLRLSCAASGRIFIPYAMGWYRQAPGKERELVAAISSSGGSTYYADSVKGRFTISRDTAKNTVYLQMNSLKPEDTAVYYCAARLYWGYAYETYSSLFEYDYWGQGTQVTVSS,low polyreactivity
4,QVQLVESGGGLVQAGGSLRLSCAASGRIFIRNAMGWYRQAPGKERELVAAITQSGGSTYYADSVKGRFSISRVYAKNTVYLQMNSLKPEDTAVYYCNAVRYNCVGYDYWGQGTQVTVSS,high polyreactivity
5,QVQLVESGGGLVQAGGSLRLSCAASGRIFIRNDMGWYRQAPGKERELVAVITRSGGRTYYADSVKGRFTISRDNAKNTVYLQMHSLKPEDTAVYSCAKRQAFKQAPYEYWGQGTQVTVSS,low polyreactivity
6,QVQLVESGGGLVQAGGSLRLSCAASGRIFISNAKGWYRQAPGKERELVAAITWIGDRTYYADSVKGRFTISRDNAKNTVYLQMNSLKPEDTAVYYCNRVTSRVSGRYSYDYWGQGTQVTVSS,high polyreactivity
7,QVQLVESGGGLVQAGGSLRLSCAASGRIFIWYGMGCYRQAPGKERELVADISSTGSTNYADSVKGRFTISRDNAKNTVYLQMNSLKPEDTAVYYCAADPETPYYTTYDYDYWGQGTQVTVSS,low polyreactivity
8,QVQLVESGGGLVQAGGSLRLSCAASGRIFIYNAKGWYRQAPGKERELVAAITSDGTTNYADSVKGRFTISRDNAKNTVYLQMNSLKPEDTAVYYCAVDPFGSLVTYDYWGQGTQVTVSS,low polyreactivity
9,QVQLVESGGGLVQAGGSLRLSCAASGRIFIYYAMGWYRQAPGKERELVAAITSGGSTIYADSVKGRFTIPRDNAKNTVYLQMNSLKPEDTAVYDCAARYVRSQTRFDYWGQGTQVTVSS,high polyreactivity
10,QVQLVESGGGLVQAGGSLRLSCAASGRIFKAYAMGWYRQAPGKERELVAVITGTGRTTYADSVKGRFTISRDNAKNTVYLQMNSLKPEDTAVYYCNVRWYYKGDYWGQGTLVTVSS,high polyreactivity
11,QVQLVESGGGLVQAGGSLRLSCAASGRIFKCYAMGWYRQAPGKERELVAAISSGGRTYYADSVKGRFTISRDNAKNTVYLQMNSLKPEDTAVYYCAALQRTGPYAGSSGYWGQGSQVTVSS,high polyreactivity
12,QVQLVESGGGLVQAGGSLRLSCAASGRIFKDNAMGWYRQAPGKERELVATIDSGGDTNYADSVKGRFTISRDNAKNTVYLQMNSLKPEDTAVYYCNRDSRVLEGDYWGQGTQVTVSS,low polyreactivity
13,QVQLVESGGGLVQAGGSLRLSCAASGRIFKGYAMGWYRQAPGKESELVAAITWRGGTTYYADSVKGRFTISRDNAKNTVYLQMNSLKPEDTAVYYCARARPTGYNYWGQGTQVTVSS,high polyreactivity
14,QVQLVESGGGLVQAGGSLRLSCAASGRIFKINAMGWYRQAPGKERELVAGISGSGSDTYYSDSVKGRFTISRDNAKNTVYLQMNSLKPEDTAVYYCAAVAYDWALFYYWGQGTQVTVSS,low polyreactivity
15,QVQLVESGGGLVQAGGSLRLSCAASGRIFKINAMGWYRQAPGKERELVATITRDGRTYYADSVKGRFTISRDNAKNTVYLQMNSLKPEDTAVYYCNVRRAFSGWRGYDYWGQGTQVTVSS,high polyreactivity
16,QVQLVESGGGLVQAGGSLRLSCAASGRIFKLYAMGWYRQAPGKERELVASITWGGGSTNYADSVKGRFTISRDNAKNTVYLQMNSLKPEDTAVYYCAAVYSKYAVFWEYDYWGQGTQVTVSS,low polyreactivity
17,QVQLVESGGGLVQAGGSLRLSCAASGRIFKLYAMGWYRQAPGKERELVATIRYSGGSTYYADSVKGRFTISRDNAKNSVYLHMNSLKPEDTAVYYCNYVSRRQYFEYDYWGQGTQVTVSS,low polyreactivity
18,QVQLVESGGGLVQAGGSLRLSCAASGRIFKLYAMGWYRQAPGKESELVAAITRRGGSTSYADSVKGRFTISRVNAKNTVYLQMNSLKPEDTSVYYCAASLSPWFTSYYLPYDLGYWGQGTQVTVSS,high polyreactivity
19,QVQLVESGGGLVQAGGSLRLSCAASGRIFKNNTMGWYRQAPGKERELVAAISCSGGSTYYADSVKGRFTISRDNAKNTVYLQINSLKPEDTAVYYCATTYEPNGGIEDDYWGQGTQVTVSS,low polyreactivity
20,QVQLVESGGGLVQAGGSLRLSCAASGRIFKNYAMGWYRQAPGKERELVAAITWSVGSTYYADSVKGRFTISRDNAKNTVYLQMNSLKPEDTAVYYCAARRSDFRGAKDGYYYWGQGTQVTVSS,low polyreactivity
21,QVQLVESGGGLVQAGGSLRLSCAASGRIFKPYAMGWYRQAPGKERELVASISRRGGSTYYADSVKGRFTISRDNAKNTVYLQMNSLKPEDTAVYDCNASGTYISLGYDYWGQGTQVTVSS,high polyreactivity
22,QVQLVESGGGLVQAGGSLRLSCAASGRIFKRNAMGCYRQAPGKERELVATIDWSGGSTYYADSVKGRFTISRDNAKNTVYLQMNSLKPEDTAVYYCAAASGRWNKYGYWGQGTQVTVSS,low polyreactivity

row,Sequence,polyreactivity (PSR sort gate)
1,QVQLVESGGGLVQAGGSLRLSCAASGRIFKRNAMGWYRQAPGKERELVAAITGNVGSTYYADSVKGRFTISRDNAKNTVYLQMNSLKPEDTAVYYCAAYVQYSSIVGYGYWGQGTQVTVSS,high polyreactivity
2,QVQLVESGGGLVQAGGSLRLSCAASGRIFKRNTMGWYRQAPGKEMELVAAITYSGITYYADSVKGRFTISRDNAKNTVYLQMNSLKPEDTAVYYCAKVLYPIGSPRFEFWGQGTQVTVSS,low polyreactivity
3,QVQLVESGGGLVQAGGSLRLSCAASGRIFKRYVMGWYRKAPGKERELVAAITWRGGTYYADSVKGRFTISRDNAKNTVYLQMNSLKPEDTAVYYCAADTYFSGAGGQAYQYDYWGLGTQVTVSS,high polyreactivity
4,QVQLVESGGGLVQAGGSLRLSCAASGRIFKSYAMGWYRQAPGIERELVAAIRSGGSTYYADSVKGRFTISRDNAKNTVYLQMNSLKPEYTAVYYCNRVTRTWKVTYHSWGQGTQVTVSS,high polyreactivity
5,QVQLVESGGGLVQAGGSLRLSCAASGRIFKSYDIGWYRQAPGKEMELVSAISQSGGGTYYADSVKGRFTISRDNAKNTVYLQMNSLKPEDTAVYYCAAYRRVNRYQKIDNYWGQGTQVTVSS,high polyreactivity
6,QVQLVESGGGLVQAGGSLRLSCAASGRIFKTNAMGWYRQAPGKERELVAAISKRGGRTYYADSVKGRFTISRDNAKNTVYLQMNSLKPEDTAVYYCATRYSGYSLGDYWGQGTQVTVSS,high polyreactivity
7,QVQLVESGGGLVQAGGSLRLSCAASGRIFKVYTMGWYRQAPGKERELVATITRSGTSTYYADSVKGRFTISRDIAKNTVYLQMNSLKPEDTAVYYCARLVGYKFSYDYWGQGTQVTVSS,high polyreactivity
8,QVQLVESGGGLVQAGGSLRLSCAASGRIFKYNAMGWYRQAPGKERELVAAISGRGVSTYYADSVKGRFTISRDNAKNPVYLQMNSLKPEDTAVYYCAAETVHGSADFDDWGQGTQVTVSS,low polyreactivity
9,QVQLVESGGGLVQAGGSLRLSCAASGRIFKYNAMGWYRQAPGKERELVAVITSGGSTNYADSVKGRFTISRDNAKNTVYLQMNSLKPEDTAVYYCNARRYSTYDYWGQGTQVTVSS,high polyreactivity
10,QVQLVESGGGLVQAGGSLRLSCAASGRIFKYNAMGWYRQATGKERELVAAISSSGGSTYYADSVKGRFTISRDNANNTVYLQMNSLKPEDTAVYYCAARYNSRVYRYDYWGQGTQVTVSS,high polyreactivity
11,QVQLVESGGGLVQAGGSLRLSCAASGRIFKYYAMGWYRQAPGKERELVAAITSAGNTKYADSVKGRFTISRDNAKNTVYLQMNSLKPEDTAVYYCARGRYYVIGSYDYWGQGTQVTVSS,high polyreactivity
12,QVQLVESGGGLVQAGGSLRLSCAASGRIFKYYAMGWYRQAPWKERELVDTIRRSGGSTYYADSVKGRFTISRDNAKNTVYLQMNSLKPEDTAVYYCNARYLFLQAWLRPYRSDYWGQVTQVTVSS,high polyreactivity
13,QVQLVESGGGLVQAGGSLRLSCAASGRIFLFYAMGWYRQAPGKERELVASITSSGGDTSYYADSVKGRFTISLDNAKNTVYLQMNSLKPEDNAVYYCASRPWTSWRYYYWGQGTQVTVSS,high polyreactivity
14,QVQLVESGGGLVQAGGSLRLSCAASGRIFLGYAMGRYRPARGKERELVAAISTSGGSTYYADSVKGRFTISRDNAKNTVYLQMNSLKPEDTAVYYCAARNVRTYVTGVDYDYWGQGTQVTVSS,high polyreactivity
15,QVQLVESGGGLVQAGGSLRLSCAASGRIFLINAMGWYRQAPGKERELVAAITSSGGSTYYADSVKGRFTISRDNAKNTVYLQMNSLKPEDTAVYYCATRSYRGRPYNYWGQGTQVTVSS,high polyreactivity
16,QVQLVESGGGLVQAGGSLRLSCAASGRIFLIYTMGWYRQAPGKERELVASITFRSGSTYYADSVKGRFTISRDNAKNTVYLQMNSLKPEDTAVYYCAADRGVLNQFDYWGQGTQVTVSS,low polyreactivity
17,QVQLVESGGGLVQAGGSLRLSCAASGRIFLKYTMGWYRQAPGKERELVAAISRGGSTYYADSVKGRFTISRDNAKNTVYLQMNSLKPEDTAVYYCAATSYRRTGYNYWGQGTQVTVSS,high polyreactivity
18,QVQLVESGGGLVQAGGSLRLSCAASGRIFLLNAMGWYRQAPGKERELVARISSGRTYYADSVKGRFTISRDNAKNTVYLNMNSLKPEDTAVYYCNATVSSSKYRYFYVNPYYYWGQGTQVTVSS,low polyreactivity
19,QVQLVESGGGLVQAGGSLRLSCAASGRIFLLNPMGWYRKAPGKERELVARISSGRTYYADSVKGRFTISRDNAKNTVYLQMNILKPEDTAVYYCNATVSSSKYRYFYVNPYDYWGQGTQVTVSS,low polyreactivity
20,QVQLVESGGGLVQAGGSLRLSCAASGRIFLRNAMGWSRQAPRKERELVAAISSSGGRTYYADSVKGRFTISRDNAKNTVYLQMNSLKPEDTAVYYCNARWHGSFDYWGQGTQVTVSS,low polyreactivity
21,QVQLVESGGGLVQAGGSLRLSCAASGRIFLRNDMGWYRQAPGKERELFAGISSDGSTYYADSVKGRFTISRDNAKNTVYLQMNSLKPEDTAVYYCAAERWGNPTDYQFWRPYDYWGQGTKVTVSS,low polyreactivity
